Assay results from paper PMC7769458, “In vitro and in vivo characterization of Recifercept, a soluble fibroblast growth factor receptor 3, as treatment for achondroplasia” (PLoS ONE, 2020).

How the values were obtained:
Details in all cases: both partners purified
human FGF8 = human FGF8 (human, UniProt P55075 23-233, Isoform, supplier and limits are not printed. Assumed the FGF8b isoform (mature 23-215), the usual commercial recombinant form and the one that binds FGFR3c; the P55075 canonical sequence is FGF8e. Th); test: SPR; as a1 (Recifercept amine-coupled on a CM5 chip, hFGF in HBS-EP, single cycle kinetics, 0 to 16 nM, 1:1 fit, triplicate) but with 16 nM heparin in each tested concentration (FGF8 subfamily)
human FGF17 = target: T1, human FGF17 (human, UniProt O60258 23-216); test: as above
T1 construct: fibroblast growth factor 17, human, recombinant; also called hFGF17; source: recombinant
T1 sequence (looked up): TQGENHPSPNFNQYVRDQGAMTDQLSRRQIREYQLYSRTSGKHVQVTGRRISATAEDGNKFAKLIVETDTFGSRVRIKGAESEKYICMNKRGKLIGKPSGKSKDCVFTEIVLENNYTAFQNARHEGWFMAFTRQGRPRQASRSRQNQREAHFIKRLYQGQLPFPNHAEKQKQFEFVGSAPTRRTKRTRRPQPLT

human FGF18 = target: T2, human FGF18 (human, UniProt O76093 28-207); test: as above
T2 construct: fibroblast growth factor 18, human, recombinant; also called hFGF18; source: recombinant
T2 sequence (looked up): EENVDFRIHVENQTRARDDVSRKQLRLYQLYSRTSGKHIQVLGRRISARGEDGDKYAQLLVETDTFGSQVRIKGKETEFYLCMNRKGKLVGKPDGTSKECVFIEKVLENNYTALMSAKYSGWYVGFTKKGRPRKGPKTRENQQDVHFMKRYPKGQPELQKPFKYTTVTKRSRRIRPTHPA

human FGF1 = target: T3, human FGF1 (human, UniProt P05230 16-155); test: SPR; Biacore T200; Recifercept amine-coupled on a CM5 chip (about 400 RU); hFGF injected in HBS-EP (0.01 M HEPES, 0.15 M NaCl, 3 mM EDTA, 0.05% polysorbate 20, pH 7.4) at 50 ul/min; single cycle kinetics, 5 concentrations from 0 to 16 nM; global 1:1 fit; triplicate
T3 construct: fibroblast growth factor 1, human, recombinant; also called hFGF1; source: recombinant; bought: Peprotech for the cell assays

human FGF2 = target: T4, human FGF2 (human, UniProt P09038 143-288); test: as above
T4 construct: fibroblast growth factor 2, human, recombinant; also called hFGF2; source: recombinant; bought: Peprotech for the cell assays

human FGF9 = human FGF9 (human, UniProt P31371 4-208); test: as above
human FGF16 = target: T5, human FGF16 (human, UniProt O43320 1-207); test: as above
T5 construct: fibroblast growth factor 16, human, recombinant; also called hFGF16; source: recombinant

human FGF20 = target: T6, human FGF20 (human, UniProt Q9NP95 1-211); test: as above
T6 construct: fibroblast growth factor 20, human, recombinant; also called hFGF20; source: recombinant
T6 sequence (Q9NP95 whole entry): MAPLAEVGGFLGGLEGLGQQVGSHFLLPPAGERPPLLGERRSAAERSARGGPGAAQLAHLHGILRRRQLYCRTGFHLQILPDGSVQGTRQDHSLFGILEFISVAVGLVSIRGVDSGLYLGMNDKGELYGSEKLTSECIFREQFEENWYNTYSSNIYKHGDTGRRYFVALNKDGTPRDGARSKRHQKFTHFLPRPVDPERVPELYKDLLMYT

T4 sequence (P09038 143-288): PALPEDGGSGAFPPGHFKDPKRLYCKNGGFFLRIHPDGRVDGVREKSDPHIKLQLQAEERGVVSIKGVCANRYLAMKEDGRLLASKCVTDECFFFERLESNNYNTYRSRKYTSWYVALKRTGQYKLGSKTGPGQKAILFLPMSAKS
T3 sequence (P05230 16-155): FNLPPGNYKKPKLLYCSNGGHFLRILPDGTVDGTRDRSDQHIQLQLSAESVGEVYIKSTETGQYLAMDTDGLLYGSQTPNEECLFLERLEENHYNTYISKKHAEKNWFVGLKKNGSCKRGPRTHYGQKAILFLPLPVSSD

B1: Recifercept (receptor)
chain: ESLGTEQRVVGRAAEVPGPEPGQQEQLVFGSGDAVELSCPPPGGGPMGPTVWVKDGTGLVPSERVLVGPQRLQVLNASHEDSGAYSCRQRLTQRVLCHFSVRVTDAPSSGDDEDGEDEAEDTGVDTGAPYWTRPERMDKKLLAVPAANTVRFRCPAAGNPTPSISWLKNGREFRGEHRIGGIKLRHQQWSLVMESVVPSDRGNYTCVVENKFGSIRQTYTLDVLERSPHRPILQAGLPANQTAVLGSDVEFHCKVYSDAQPHIQWLKHVEVNGSKVGPDGTPYVTVLKTAGANTTDKELEVLSLHNVTFEDAGEYTCLAGNSIGFSHHSAWLVVLPVSLESNASMSSNT
notes: extracellular domain of human FGFR3 (P22607); also called soluble fibroblast growth factor receptor 3; modified soluble recombinant human FGFR3; source: GPEX CHO cell line, 50L single use bioreactor, media filtered, purified using chromatography
Kd (human FGF8): 4.28 nM
koff (human FGF8): 0.000705 s⁻¹
kon (human FGF8): 171000 M⁻¹ s⁻¹
Kd (human FGF17): 2.73 nM
koff (human FGF17): 0.000964 s⁻¹
kon (human FGF17): 390000 M⁻¹ s⁻¹
Kd (human FGF18): 4.17 nM
koff (human FGF18): 0.00105 s⁻¹
kon (human FGF18): 270000 M⁻¹ s⁻¹
Kd (human FGF1): 0.74 nM
koff (human FGF1): 0.000904 s⁻¹
kon (human FGF1): 1.33e+06 M⁻¹ s⁻¹
Kd (human FGF2): 3.4 nM
koff (human FGF2): 0.000898 s⁻¹
kon (human FGF2): 279000 M⁻¹ s⁻¹
Kd (human FGF9): 0.75 nM
koff (human FGF9): 0.00133 s⁻¹
kon (human FGF9): 1.83e+06 M⁻¹ s⁻¹
Kd (human FGF16): 0.94 nM
koff (human FGF16): 0.00253 s⁻¹
kon (human FGF16): 2.8e+06 M⁻¹ s⁻¹
Kd (human FGF20): 7.1 nM
koff (human FGF20): 0.000548 s⁻¹
kon (human FGF20): 123000 M⁻¹ s⁻¹
